We go through 19 sequences from the DeepSol protein solubility set.

The nature of the data set: soluble on expression in E. coli; label from the status in PepcDB or PDB records.
As to “MQSTFRRSTLAALRGFALPSDAISIVPSAADYRRCLLEKIASATRRIYIIALYLQQDEAGQEILDALYAAKAARPELDVVVLVDWFRAQRGLIGAGRQPGNSTWYQAQNLEYDEEVPIYGVPVQTRELFGVLHLKGSVIDDCVIYSGASINNVYLHKLDKYRLDRYHLIESAPLADSFEHLVQREILPSAAVHRLDLQSPPSSRSLRSEIRAFRSDLKRATYDTSAGDKENGQLRVIPLLGVGPRNSLNRAICDLIASSKIQLTICTPYFNLPVAVTREVNRALKRGVKVDIIIGDKTANDFFIDPDEPFKVISALPYLYEISLRRFAHKHQKAIAQQRLNVHLWKHGDNTFHLKGIWVDQRYTLLTGNNLNPRAFNLDLENGLLIDDPQGQWTDPREAEIAQLMRNTQRVNQYDELDTLANYPEGVRKFLKRVSRVRVERLLYRILLEHHHHHH”, the “soluble on expression in E. coli” value is on record as “not soluble”. With “YLFSSTAVASDESRPKIGLVLAGGGAKGAAHIGVLKALEEMHIPVDYITGTSMGAYVGGLYASGMSADEIEAFIDTVDWNSGFVDKVERSERQIRDKEYEDRYQIGTDIGFSFTELKAPKGFVQGQTMAKILRTTSDNIPYLNSFDQLPIPFRAVATDIEKLEPVVLDKGNLAEAMMASMSVPGALPPAEYDGRLLVDGGVVNNMPVDVV”, the “soluble on expression in E. coli” value is listed as “not soluble”.

“MGSDKIHHHHHHMSIICLALAGCAVEKTEVRTPTFDEQLRPAPPSYANGSIWQASTTGLAVDHKARSRGDIITVLIVEQASASKEATTDTERKAEVSASVPYLMGLEKSSTLFSKLTNANPNNLLGASTNSKYEGSGATTRKENLLATMTAKITDVLPNGNFLIEGRRNVKVNNEDQILVLQGTIRPRDVSPDNTISSTMIADARISYTGNGVISDRQRPGWLMNILDYIWPF”: the “soluble on expression in E. coli” value is listed as “not soluble”. On to “METALVSIIMPMYNAGKFLSKSIESVLEQTYQNWELLLIDDGSKDDSIDIALAFMEKDSRIFLLKNEQNMGIAKTRNKGIEASKGQYIAFLDSDDLWLPNKLEVQVKWMEEKKLLFTCSSYFVCNENGNITHERNFSEGPQTYQDLLKTNTIGCLTVVVESNLLKRHLMPDLKHEDYATWLNILKEINTVYFINEKLAIYRKLTTSTSSNKWNTISWVWKILRQNEQFSVIKSSFYLMRFLFYTTFKYAKNELEHHHHHH”, for which the “soluble on expression in E. coli” value is “soluble”.

In the case of “MHSQFGKHKSDISLLTPAPPSPKAFGLLYAAHWLGSTDPEIWERLETLANENQCLIDLRDEKVPGTYETQLFVIGYAGNIVTVLKQLQDYIDEPNNFDRFDIDRRPRKETLKMCVPTDMFLSKFGVGLVAEGRITHYEQNRGVTIKTYAISQSQHVISVYSNENNHQLPLHDLVEYFAYPSQCYEKSFAQKIPYLVDNKSGLLNRFKDISKLDVIKTPRDQLWLMALDGMKTVDARESILQALRENPDSASLYVRACKLEHLPSCKMEWLLHALQRDTLDDKMKIIKHAETYFRGPAILQILESAVLSLSNDIHIVRELAIAHEKSGNFEKSMQFLKDCIDNNSWNSTELTASMIHCEHAGANRTSKVYLEAMYSIFNFTTSEEAALIEIVKVLVETDSPLSAKSLSLELMTRYAGTPTFEKTRQLFHSLFYTTCSKSDSERYDDTFIKHMAKWNKKQQEQQK”, the “soluble on expression in E. coli” value is on record as “not soluble”. Turning to “MLVEDSGHHLPESADIENALDLLLKAQLERAFGPELAEHFWAARQPRTLDERLAFIRKCWIGVFKDSPLSTFGLERLEQLERLCRSKRRGRELSAAEHHQFAEELARLWEQVQRLLPRAAPETSYASSASAGGVHSGDAHTPATLSDAESAHAAPEAMRIEAPATSARSASGCMARVSSDVAAAATNVSLVVLDGENIAWAHGQNAVFSPKGIAIAVDFFRKRGYRCVVFLPDYRRKRADLPTVSASDALVFVPAGEYDDTFALGYAVGHDAILVTNDLLQDHLDQFYPDEGEAREALRKWLGSHRCSFTFVGDEFLPNPHFFLP”, the “soluble on expression in E. coli” value was “not soluble”. As to “MADEAQAPPAEGAPPAEGEAPPPAEGAEGAVEGGEAAPPAEPAEPIKHSYTLFYFNVKALAEPLRYLFAYGNQEYEDVRVTRDEWPALKPTMPMGQMPVLEVDGKRVHQSISMARFLAKTVGLCGATPWEDLQIDIVVDTINDFRLKIAVVSYEPEDEIKEKKLVTLNAEVIPFYLEKLEQTVKDNDGHLALGKLTWADVYFAGITDYMNYMVKRDLLEPYPALRGVVDAVNALEPIKAWIEKRPVTEV”, the “soluble on expression in E. coli” value is given as “soluble”.

In the case of “MGSDKIHHHHHHMNMEINPSEYKILIVDDVMSNVLLLKVLLTNEKFNIVTASNGNQALDQVKKENPDLILLDVMMPDMSGFEVSQKLKADPEAAHIPIIFLTALNSTADIVKGFQVGGNDFISKPFNKEELIIRVSHQISLVAAKRIIEAKTEELKKTIIGRDKLYSVIAHDLRSPMGSIKMVLNMLILSLPKEKIGEDMYELLTMANQTTEDVFSLLDNLLKWTKSQIGKLKVVYQDIDMVEVVEGVGEIFAMVAGLKNIRLRIESPECQAVHADIDMIKTVIRNLISNAIKFSNEGSEVLIKVEESDGMSVVSVKDSGCGIDEESQKKLLHTDTHFSTFGTNNEEGSGLGLLLCQDFVVKNGGKLWFTSVKDEGSTFYFSIPLKK”, the “soluble on expression in E. coli” value is “not soluble”. For “MGSDKIHHHHHHMPKRRLPSLNALRAFESAARNQSMTRAAEELCVTHSAISRHVAKLEDYLNAKLFERGHQQVVLTKRGAAYASRLQVLFDQIQDVTAEYFYARPDNASLRIGVLSTFAMRFLIPRLARFKKLYPEITLQVESAHEHVSPRDEEVDVAIWFGNGDWPGLVSEHLFHEELVPVGSPTLLAGHELGNPDDLESFLLLHAAARHDDWQRWLSATGATRVDGYKGLKLEYSGLAYQGAVDGLGLAMAQTLFVQEDLANRRLVAALPQRVKTGRSYYLVHNEMKSEQPVILRFSEWLKDEVRKTIEEIDRTQAEHIEVV” the value was “not soluble”; for “MEEGIKMGTKLTSLFKEGEKYQINTKYKELPIKTNLKLLWIDENMKLLGFSIGACVFKGAFTPGTEVYIKINGKYAYGKVFSCSNELVIEFKEIRKEPEFIRRRTVRVEPDPANPVVVELKVDSYSIKTKAKDISETGVGVILEKDKPESAEVIDIIQKNPNSWFDLYVHLPKHGTAHAKGRVRNLSIEEEGIYIRIGFEAEYSKEDREKVRRYVFERQQEIIKSLKML”, “not soluble”; for “MNMEEITPVDILLQLVKMGKVDPWNIDIVDLTEKYIKMLREMQELDLRISARAILAASILVRMKSEALLRGEEEENKRGEEEKIKVDVDPLVPPLRRVERYYTLDDLIEALMDALEEAEKRKPKKKKKVEIDEEIFVVDDFRVDIEKYVEELYKVVKKIYEKTKTPIKFWDLVPDVEPKIIARTFLYLLFLENMGRVEMIQEEPFGEILVVPV”, “soluble”. With “MAIALSTLVEEADRYLDAARIQDYCPNGLQVEGRPQVRRIVSGVTASQALLDAAVEADADVVLVHHGYFWKGENPCVVGMKQRRLKTLLNNDISLLAYHLPLDLHPEVGNNVQLARQLGFEVEGPLEPGNPRSIVLLGSLAEPMQPADFARHVRDALGREPLLVDAGQPIRRIAWCTGGAQGYIDQAIAAGVDAYLTGEVSEQTVHSARENGISFIAAGHHATERYGVQALGDYLGKRFAIEHLFIDCPNPALEHHHHHH”, the “soluble on expression in E. coli” value is “soluble”. For “MIRTVMDFKFVLRLLEANQFENEVVEYKKNNKDFIVLGKNISALSNTAALLGIDKAYIIFGIEDGTLNIVGTNFKPKQEKKGNEELESWLHKVLKPNIEFKIHEITEKEIRLVVFEIEATKISPIKFEEKAYIRIGSNRKELDKYPEKEKKLWQVLSGFSFENEIAKSNLNIQDIYDLLDYSKCFDMLDISYDNYSSDEYIIEKLIEHGLVKNLNDSFAITNLGAILFAKDLTKFKGLNRKRIRFIRYQGKNKIHTLEELEGRKGYAIGFQGLISYIMQYVPKNEVIENAIRKDTTLYPEIAIRELVANAIIHQDFTINGRNPMIEMYSDRIEITNNGKSLIDIKRLIDMPSKSRNDKLANLMRIMGICEERGSGVDKVIDSVEAYQLPAPDFINNEDYFQAILFSHMPLEDMTKQDRIRATYQHCCLKWASREAMTNASLRARFKIGDKQHSKASKIISDTLEAGLIKQQDPENKSTKHVKYVPFFV” the value was “not soluble”. For “MSLKKYIITLLFCTLFCHLGIAQGLKSVSILGDSYSTFEGYVQPDTNFVWYLKTPPKGRKTDMVSVRNTWWHQFIKENNYRLCVNNSFSGATICHTGYRSEDYSDRSFITRMKALGCPDIIFIFGATNDYWAKSPLGEYKYADWSKKDLYSFRPAMAYMLDTMIDYYPNVEIYFLLNDGLGNEITESVRTICKHYQIDCIELKELDKMSGHPSVKGMKQISEQVKAYMNSRQNEGHHHHHH” the value was “not soluble”; for “GPGSMPLTAAGMRTLMRQMQEVQEHPVDGVQVRPSDSMNEYHFDVDGPEGTPFAAGRFHVVLIFDEQYPEVPPKGFFRTKIFHPNISERGDICVNTLKRDWSPMLGLRHILVVIRCLLIEPNPESALNEEAGRLILEEYAAYERKAAMYTAINAARPNGVPRFTLPEVKAEKASGSVTACASAGAAADSGASATAAAAAASASSMANGGAPSTATRGLTLSEANCHPGSATAAEKAEKSKKKALRRI”, “soluble”; for “MGSDKIHHHHHHMWLKAKKDAEAGAVSFSNQNGKFAEVSSVNTEEFSFRIYQVFGGGHVELSYDTVTTAVSVIYWFTASDVLETGITVVHTKPDNAAPELPGSYHFRPPFGWMNDPNGFGRFEGRPHLFYQHYSHGLRWNTMHWGHAVSSDYLRWRHLPIFLFPSEDLTTRPDKRGGAYSGSTIPLVEGSGIRVFFTEQVQDRIPEQQIQLTATSSDLIMAGQADVILAHRPDGQGLTPDFRDPYVFRGPDGLWKMLLGSQSDGGGVILLYETLDPTAASGWTYVGKLWVETRYKTTAIECPCLLPLDGPANARSTRWVLIYGLMHSEDPETGRKNLTMADVGWFDGKVFTKEFGQELDFGTDNYAFQAFLDGDSIIGIGWLANWADANPEIDFPTSMTLPRRIHYANGELLTPPIGAAESLRSHILDRTRLAAGERVTFINGAVEILIELASSDAAFELALDHPTVTLGLVSDETGLWIRHEDGRDGASPHYIAKGARASRIRIFLDYGSIEVFANRGRYVGTKRIEGFEPVRSALLRADPGAVVHATSWALKP”, “not soluble”.

“MSLSSANGGHVDQSDHLALLPPNVRKKGRPTLVLDLDATLFYTSAELLNTPLDYFDMGEESTYRYLYLRPYALDFLGWASTVFEVIIWTAAMESYAEPRIRATEIDRYADVVLYRGACDMIDGSLVKNLAKLGRPLSDMIIVDDNPVSYALNVELAYPIPPFSGEEDDLELLRLVPILRKVLELSSLKRGIYKTIFSEGHHHHHH”: the “soluble on expression in E. coli” value is “soluble”.

“GPGSMSIHQTKVCSVNEPLSNPDDSALEYCVEAQSPVNRTTSTWEFRSKLFPHAFAAVLDTDLSESETTQRELAEWTRKRCRNYERQGDILRSQLGVLVSSGAANGKRSDADDGDDEAFLVGLGEWSLQESSSQYLNSAKKKKCHRQLRCKDSYESALLLERQWSERHAVSLKHSCMKGAHPTPAAQNFELGCAKDLCRDASSVEIHSITPAASVVAAEKTRSVTACEPPTEQERKKNRGVASEHEGTQNFAEHLVVQYFIPDGSEAESGKSSNDTRGGACGRGLYSMPLSVFRYHYPQLLLDFLLQHSVVMESS”: the “soluble on expression in E. coli” value is listed as “not soluble”. For “MDMQVVPKIGISSVVHSKHIDPGSIDVVGNDIALFDTESVISLYNGPSKLEVVSIGLCLEGSTRFNISLREFELIPGRMVIALPNQIIEHRQFSSNFRGIFFAVSKSLLESLPKVGNVLSFFFFLKDYPCFDLNLHEQEMIKEYHAFIRKRLKNKDDRYRREVVMGLMQGFFFELCNIFNSYAPDASAVVKSKSRKEYIFERFYESLVQSYQSERSVKFYADQLCLTPKHLSGVVKEVSGKTVGEWIDELVILEAKALLNSSSMNIQEIADRLNFANQSFFGKYFKHYTGMSPKEYRKSR” the value was “not soluble”.
